The assay concerns the target human Cadherin-11 protein expressed on 431-D-11 cells (human) (UniProt P55287). As to the kind of experiment: cell-based or functional assay.

Regarding “human Cad-11-EC1-hIgG2-Fc1 fusion protein (Fc fusion)”, the in vitro cell aggregation assay came out at 3 µg/mL.
